In general, stoichiometry N refers to the number of molecules, sites or subunits per partner or assembly.

Holding throughout (assay): cryo-EM structure; budding yeast replisome: 150 nM CMG on fork DNA (39 nt 3′ flap, 60 nt 5′ flap) with 1.5-fold molar excess of Tof1-Csm3, Mrc1 and Pol α-primase; 25 mM HEPES-NaOH pH 7.6, 150 mM NaOAc, 0.5 mM TCEP, 500 μM AMP-PNP, 10 mM Mg(OAc)2, on ice; 10-30% glycerol gradient with glutaraldehyde and BS3 cross-linkers
Series [1] concerns the target T1, Pol1 (budding yeast Pol α catalytic subunit) (S. cerevisiae, UniProt P13382 1-1468).
T1 construct: Pol1, S. cerevisiae; modelled: CTD 1271-1468 and CIP box F140-S149; stood in the assay as a subunit of m1; also called Pol1CTD; Pol1CIP; source: subunit of Pol α-primase from S. cerevisiae strain yAE95, purified as described previously
T1 sequence: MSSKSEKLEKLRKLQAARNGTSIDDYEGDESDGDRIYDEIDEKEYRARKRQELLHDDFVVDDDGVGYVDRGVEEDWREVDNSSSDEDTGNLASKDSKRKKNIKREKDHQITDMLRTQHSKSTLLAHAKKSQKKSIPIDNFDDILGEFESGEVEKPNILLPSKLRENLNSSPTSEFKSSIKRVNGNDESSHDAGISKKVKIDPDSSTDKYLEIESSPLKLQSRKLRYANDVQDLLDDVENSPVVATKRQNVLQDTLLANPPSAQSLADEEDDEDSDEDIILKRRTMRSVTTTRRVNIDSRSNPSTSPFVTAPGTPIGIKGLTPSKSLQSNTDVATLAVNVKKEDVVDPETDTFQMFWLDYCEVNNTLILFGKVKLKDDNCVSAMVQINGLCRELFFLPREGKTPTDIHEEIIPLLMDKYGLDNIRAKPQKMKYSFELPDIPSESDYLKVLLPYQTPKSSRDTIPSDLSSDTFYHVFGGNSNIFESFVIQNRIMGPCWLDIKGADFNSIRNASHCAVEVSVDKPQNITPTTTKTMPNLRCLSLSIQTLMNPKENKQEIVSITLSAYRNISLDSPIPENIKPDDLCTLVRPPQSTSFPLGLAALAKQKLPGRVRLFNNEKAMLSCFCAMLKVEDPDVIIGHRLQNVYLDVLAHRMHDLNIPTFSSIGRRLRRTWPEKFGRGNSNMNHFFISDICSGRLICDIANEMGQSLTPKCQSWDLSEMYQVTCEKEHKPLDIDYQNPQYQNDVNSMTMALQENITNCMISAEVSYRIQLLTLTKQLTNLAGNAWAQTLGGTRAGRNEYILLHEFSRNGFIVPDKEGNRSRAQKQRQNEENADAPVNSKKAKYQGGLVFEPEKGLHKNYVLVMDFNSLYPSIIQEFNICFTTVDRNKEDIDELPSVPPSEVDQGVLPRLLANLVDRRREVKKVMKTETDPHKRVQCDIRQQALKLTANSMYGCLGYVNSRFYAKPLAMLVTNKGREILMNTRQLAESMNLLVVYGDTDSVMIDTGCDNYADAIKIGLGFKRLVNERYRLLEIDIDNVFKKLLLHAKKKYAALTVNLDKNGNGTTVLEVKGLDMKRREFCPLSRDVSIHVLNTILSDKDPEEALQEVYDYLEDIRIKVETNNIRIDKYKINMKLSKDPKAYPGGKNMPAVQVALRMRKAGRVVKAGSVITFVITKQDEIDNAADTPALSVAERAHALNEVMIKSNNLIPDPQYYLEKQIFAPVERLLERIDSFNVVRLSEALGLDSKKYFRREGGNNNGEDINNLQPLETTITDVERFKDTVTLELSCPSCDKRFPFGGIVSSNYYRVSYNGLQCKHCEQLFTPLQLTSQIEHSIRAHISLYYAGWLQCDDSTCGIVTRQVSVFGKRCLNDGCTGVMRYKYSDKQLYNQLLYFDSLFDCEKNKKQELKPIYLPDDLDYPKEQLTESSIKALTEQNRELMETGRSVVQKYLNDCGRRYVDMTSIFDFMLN
As to conditions: both partners purified.

The target of series [2] is T2, Mcm3 (budding yeast) (S. cerevisiae, UniProt P24279 1-971).
T2 construct: Mcm3, S. cerevisiae; stood in the assay as a subunit of m2; source: subunit of CMG from S. cerevisiae strain yJY197, purified as described previously
T2 sequence (P24279 whole entry): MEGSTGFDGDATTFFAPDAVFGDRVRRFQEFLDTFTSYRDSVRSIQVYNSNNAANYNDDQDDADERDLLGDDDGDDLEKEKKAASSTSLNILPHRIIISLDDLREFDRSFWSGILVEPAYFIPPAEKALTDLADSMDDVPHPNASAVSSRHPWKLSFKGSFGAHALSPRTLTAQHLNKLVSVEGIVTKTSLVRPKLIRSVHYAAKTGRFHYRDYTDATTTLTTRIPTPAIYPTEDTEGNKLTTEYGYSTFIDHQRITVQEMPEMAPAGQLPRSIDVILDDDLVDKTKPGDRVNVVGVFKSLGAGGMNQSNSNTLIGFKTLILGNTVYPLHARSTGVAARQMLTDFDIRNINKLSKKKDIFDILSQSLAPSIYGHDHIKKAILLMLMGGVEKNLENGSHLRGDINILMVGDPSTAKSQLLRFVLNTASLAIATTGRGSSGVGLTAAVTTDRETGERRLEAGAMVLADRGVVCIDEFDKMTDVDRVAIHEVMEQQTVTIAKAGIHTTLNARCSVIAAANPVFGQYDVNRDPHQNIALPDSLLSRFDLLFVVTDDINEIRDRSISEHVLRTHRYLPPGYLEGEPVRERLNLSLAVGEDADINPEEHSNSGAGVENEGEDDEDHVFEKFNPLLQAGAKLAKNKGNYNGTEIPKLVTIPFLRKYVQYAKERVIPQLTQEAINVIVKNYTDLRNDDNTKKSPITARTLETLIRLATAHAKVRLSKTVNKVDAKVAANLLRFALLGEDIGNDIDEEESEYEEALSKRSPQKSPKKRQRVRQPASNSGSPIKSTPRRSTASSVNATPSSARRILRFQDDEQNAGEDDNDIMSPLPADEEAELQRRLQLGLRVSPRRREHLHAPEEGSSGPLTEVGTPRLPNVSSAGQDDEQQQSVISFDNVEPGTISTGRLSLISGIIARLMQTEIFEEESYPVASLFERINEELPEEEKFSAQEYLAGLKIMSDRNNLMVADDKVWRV
Particulars: both partners purified.

Series [3] deals with the molecule itself.
Series [4] concerns the target T3, budding yeast CMG (Cdc45-Mcm2-7-GINS) replicative helicase (S. cerevisiae, UniProt Q08032 1-650; P29469 1-868; P24279 1-971; P30665 1-933; P29496 1-775; P53091 …).
T3 construct: Cdc45, S. cerevisiae; Mcm2, S. cerevisiae; Mcm3, S. cerevisiae; Mcm4, S. cerevisiae (named only within Mcm2-7); Mcm5, S. cerevisiae; Mcm6, S. cerevisiae (named only within Mcm2-7); Mcm7, S. cerevisiae (named only within Mcm2-7); Psf1, subunit of GINS, S. cerevisiae; Psf2, subunit of GINS, S. cerevisiae; Sld5, subunit of GINS, S. cerevisiae; source: S. cerevisiae strain yJY197, expressed and …
As to conditions: both partners purified.

Series [5] deals with T4, Pri2 (budding yeast primase accessory subunit) (S. cerevisiae, UniProt P20457 1-528).
T4 construct: Pri2, S. cerevisiae; modelled residues 1-5 (N terminus), 44-177 and 181-299 (NTD); stood in the assay as a subunit of m1; also called Pri2NTD; Pri2_(Nterm); source: subunit of Pol α-primase from S. cerevisiae strain yAE95, purified as described previously
T4 sequence: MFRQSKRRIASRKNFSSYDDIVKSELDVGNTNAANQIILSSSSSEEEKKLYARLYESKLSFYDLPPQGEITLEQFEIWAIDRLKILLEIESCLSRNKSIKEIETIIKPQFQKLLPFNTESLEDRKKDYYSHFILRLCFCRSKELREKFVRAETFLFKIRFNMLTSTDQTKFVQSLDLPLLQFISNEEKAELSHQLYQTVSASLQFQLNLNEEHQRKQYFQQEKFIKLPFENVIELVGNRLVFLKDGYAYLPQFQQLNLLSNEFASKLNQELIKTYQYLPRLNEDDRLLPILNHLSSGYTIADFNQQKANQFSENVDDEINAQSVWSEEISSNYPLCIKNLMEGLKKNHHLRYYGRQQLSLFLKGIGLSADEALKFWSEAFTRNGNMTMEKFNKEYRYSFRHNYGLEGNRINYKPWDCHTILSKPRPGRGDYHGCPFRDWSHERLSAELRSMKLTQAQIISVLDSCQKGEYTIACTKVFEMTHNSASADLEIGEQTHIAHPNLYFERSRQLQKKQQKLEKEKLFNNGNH
Particulars: both partners purified.

B1: Pol12 (budding yeast Pol α accessory subunit) (natural protein, S. cerevisiae)
chain: MSGSIDVITHFGPDADKPEIITALENLTKLHALSVEDLYIKWEQFSNQRRQTHTDLTSKNIDEFKQFLQLQMEKRANQISSSSKVNTSTKKPVIKKSLNSSPLFGLSIPKTPTLKKRKLHGPFSLSDSKQTYNVGSEAETNEKGNSSLKLEFTPGMAEDAVGDSAPLSHAKSSDAKTPGSSTFQTPTTNTPTTSRQNVPAGEILDSLNPENIEISSGNPNVGLLSTEEPSYNQVKVEPFYDAKKYKFRTMRQNLQEASDVLDDQIESFTKIIQNHYKLSPNDFADPTIQSQSEIYAVGRIVPDSPTYDKFLNPESLSLETSRMGGVGRRVRLDLSQVNELSFFLGQIVAFKGKNANGDYFTVNSILPLPYPNSPVSTSQELQEFQANLEGSSLKVIVTCGPYFANDNFSLELLQEFIDSINNEVKPHVLIMFGPFIDITHPLIASGKLPNFPQFKTQPKTLDELFLKLFTPILKTISPHIQTVLIPSTKDAISNHAAYPQASLIRKALQLPKRNFKCMANPSSFQINEIYFGCSNVDTFKDLKEVIKGGTTSSRYRLDRVSEHILQQRRYYPIFPGSIRTRIKPKDVSTKKETNDMESKEEKVYEHISGADLDVSYLGLTEFVGGFSPDIMIIPSELQHFARVVQNVVVINPGRFIRATGNRGSYAQITVQCPDLEDGKLTLVEGEEPVYLHNVWKRARVDLIAS
notes: Pol12, S. cerevisiae; modelled residues 1-79, 203-582 and 604-705; stood in the assay as a subunit of m1; also called Pol12NTD; source: subunit of Pol α-primase from S. cerevisiae strain yAE95, purified as described previously
For B1, the binding result in series [1] and in series [2] was “binds” in each case.

B2: Ctf4 (budding yeast) (natural protein, UniProt Q01454 1-927, looked up)
chain: MVSVIDKLVFDFGGKTLVSLAPDNNTLCVANKNGLTKILKTNNPEEEPETLDSSKLVSSIKCYSNSHFLMTTMQGDALRYNIDSSQEELLARFALPLRDCCVIHSGKMAVFGGDDLELILLELDDETHKKHAIKIDEQVSQISYNSQMNILAVSMINGKVQIFSLTSTIPNKVHELNDYIVANSYDDTHRDKILSNMMDDIDKDNDNDLSETADPDENNVADPEFCAANRICTRVAWHPKGLHFALPCADDTVKIFSIKGYSLQKTLSTNLSSTKAHFIDLQFDPLRGTYIAAVDLNNKLTVWNWETSEIHYTREFKRKITNIAWKIQADSKTLDLVLGTWSGSIAIVQNLAESVVSNIPDQSVAESSTKHGLFVDSESDLENLEGNDDINKSDKLFSDITQEANAEDVFTQTHDGPSGLSEKRKYNFEDEEDFIDDDDGAGYISGKKPHNEHSYSRVHKTHSFPISLANTGKFRYMPFSPAGTPFGFTDRRYLTMNEVGYVSTVKNSEQYSITVSFFDVGRFREYHFEDLFGYDLCFLNEKGTLFGQSKTGQIQYRPHDSIHSNWTKIIPLQAGERITSVAATPVRVIVGTSLGYFRSFNQFGVPFAVEKTSPIVALTAQNYRVFSVHYSQFHGLSYSLSELGTSSKRYYKRECPLPMSLPNINSDMKKDANLDYYNFNPMGIKSLFFSSYGDPCIFGSDNTLLLLSKWRSPEESKWLPILDSNMEIWKMSGGKETTDIHVWPLALAYDTLNCILVKGKHIWPEFPLPLPSEMEIRMPVFVKSKLLEENKAILNKKNEIGADTEAEEGEEDKEIQIPVSMAAEEEYLRSKVLSELLTDTLENDGEMYGNENEVLAALNGAYDKALLRLFASACSDQNVEKALSLAHELKQDRALTAAVKISERAELPSLVKKINNIREARYEQQLK
notes: Ctf4, S. cerevisiae; the results say that Ctf4 was not added to the yeast reconstitution; the general method lists Ctf4/AND-1 among the proteins added; source: endogenous Ctf4 likely co-purifying with CMG from S. cerevisiae
With B2, the binding result in series [1] and in series [4] was “binds” in each case. Further, the “stoichiometry N” value in series [3] was 3.

B3: Psf2 (budding yeast GINS subunit) (natural protein, S. cerevisiae)
chain: MSLPAHLQQTFSPEEIQFIVENEPIKIFPRITTRQKIRGDDRGTGNHTRWQLITTDDKALNNMVAMRSTEVVLWIALLLKQQSKCSIVAPQWLTTKELDRKIQYEKTHPDRFSELPWNWLVLARILFNKAKDDFHDPIHELRGKIQDLREIRQIKVLKGLKYLNESHLQLDNLSLLEINELRPFITEIMDKLREIHTASLTAGTENDEEEFNI
notes: Psf2, subunit of GINS, S. cerevisiae; stood in the assay as a subunit of m2; source: subunit of CMG from S. cerevisiae strain yJY197, purified as described previously
For the molecule B3, in series [5], the binding result is “binds”.

B4: Pri1 (budding yeast primase catalytic subunit) (natural protein, S. cerevisiae)
chain: MTNSVKTNGPSSSDMEYYYKSLYPFKHIFNWLNHSPKPSRDMINREFAMAFRSGAYKRYNSFNSVQDFKAQIEKANPDRFEIGAIYNKPPRERDTLLKSELKALEKELVFDIDMDDYDAFRTCCSGAQVCSKCWKFISLAMKITNTALREDFGYKDFIWVFSGRRGAHCWVSDKRARALTDVQRRNVLDYVNVIRDRNTDKRLALKRPYHPHLARSLEQLKPFFVSIMLEEQNPWEDDQHAIQTLLPALYDKQLIDSLKKYWLDNPRRSSKEKWNDIDQIATSLFKGPKQDSHIIKLRECKEDLVLMTLYPKLDVEVTKQTIHLLKAPFCIHPATGNVCVPIDESFAPEKAPKLIDLQTEMEKNNDVSLTALQPFINQFQAYVSSLLKNELGSVKREREDDDEPASLDF
notes: Pri1, S. cerevisiae; modelled aside from its flexible N and C termini; stood in the assay as a subunit of m1; source: subunit of Pol α-primase from S. cerevisiae strain yAE95, purified as described previously
Consider B4, for which the binding result in series [5] is on record as “binds”.

Source of the values: PMC10501992, “How Pol α-primase is targeted to replisomes to prime eukaryotic DNA replication” (Molecular Cell, 2023).
